# From the supplement of paper PMC10567573
# B1: APBB1IP (parent)
# chain: SQVSMWDQRWQDHQPLLPITDVP
# B2: TRIM39 (parent)
# chain: CKACITRWWEDLERDFPCPVCRKT
# Variants of: B1
# Assay: protein stability index of a GFP-peptide fusion (GPS, HEK-293T) (PSI 1-6); higher = more stable
# Conditions: c terminus: native
# 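Further: lentivirally expressed fusions sorted by FACS into six bins by GFP to DsRed ratio, PSI derived from sequencing read proportions per bin multiplied by bin number.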
row,Variant,protein stability index
1,SQASMWDQRWQDHQPLLPITDVP,3.18
2,SQTSMWDQRWQDHQPLLPITDVP,2.34
3,SQPSMWDQRWQDHQPLLPITDVP,2.8
4,SQISMWDQRWQDHQPLLPITDVP,2.23
5,SQSSMWDQRWQDHQPLLPITDVP,2.84
6,SQDSMWDQRWQDHQPLLPITDVP,2.81
7,SQYSMWDQRWQDHQPLLPITDVP,2.27
8,SQLSMWDQRWQDHQPLLPITDVP,2.04
9,SQFSMWDQRWQDHQPLLPITDVP,1.86
10,SQVSVWDQRWQDHQPLLPITDVP,1.65
11,SQVSNWDQRWQDHQPLLPITDVP,2.76
12,SQVSLWDQRWQDHQPLLPITDVP,2.77
13,SQVSIWDQRWQDHQPLLPITDVP,1.98
14,SQVSSWDQRWQDHQPLLPITDVP,2.5
15,SQVSGWDQRWQDHQPLLPITDVP,2.37
16,SQVSFWDQRWQDHQPLLPITDVP,1.89
17,SQVSRWDQRWQDHQPLLPITDVP,3.34
18,SQVSYWDQRWQDHQPLLPITDVP,2.17
19,SQVSTWDQRWQDHQPLLPITDVP,2.73
20,SQVSCWDQRWQDHQPLLPITDVP,1.52
21,SQVSDWDQRWQDHQPLLPITDVP,3.15
22,SQVSPWDQRWQDHQPLLPITDVP,3.15

row,Variant,protein stability index
1,SQVSAWDQRWQDHQPLLPITDVP,3.14
2,SQVSKWDQRWQDHQPLLPITDVP,2.64
3,SDVSMWDQRWQDHQPLLPITDVP,3.38
4,SEVSMWDQRWQDHQPLLPITDVP,3.32
5,SLVSMWDQRWQDHQPLLPITDVP,1.5
6,STVSMWDQRWQDHQPLLPITDVP,2.54
7,SKVSMWDQRWQDHQPLLPITDVP,2.57
8,SHVSMWDQRWQDHQPLLPITDVP,2.23
9,SVVSMWDQRWQDHQPLLPITDVP,2.33
10,SPVSMWDQRWQDHQPLLPITDVP,2.83
11,SNVSMWDQRWQDHQPLLPITDVP,2.6
12,SWVSMWDQRWQDHQPLLPITDVP,1.72
13,SSVSMWDQRWQDHQPLLPITDVP,1.88
14,SCVSMWDQRWQDHQPLLPITDVP,1.94
15,SGVSMWDQRWQDHQPLLPITDVP,2.07
16,SYVSMWDQRWQDHQPLLPITDVP,1.89
17,SRVSMWDQRWQDHQPLLPITDVP,1.66
18,SAVSMWDQRWQDHQPLLPITDVP,1.88
19,SIVSMWDQRWQDHQPLLPITDVP,2.75
20,SMVSMWDQRWQDHQPLLPITDVP,3.18
21,SFVSMWDQRWQDHQPLLPITDVP,1.31

# Variants of: B2
# Assay: as above
# Conditions: c terminus: a fixed tail appended
row,Variant,protein stability index
1,CKACITRWWEDLERDFPCPVCRKP,2.78
2,CKACITRWWEDLERDFPCPVCRKI,3.57
3,CKACITRWWEDLERDFPCPVCRKW,3.02
4,CKACITRWWEDLERDFPCPVCRKC,2.75
5,CKACITRWWEDLERDFPCPVCRKM,3.76
6,CKACITRWWEDLERDFPCPVCRKH,3.58
7,CKACITRWWEDLERDFPCPVCRKK,3.83
8,CKACITRWWEDLERDFPCPVCRKG,4.24
9,CKACITRWWEDLERDFPCPVCRKN,3.61
10,CKACITRWWEDLERDFPCPVCRKE,3.98
11,CKACITRWWEDLERDFPCPVCRKY,3.74
12,CKACITRWWEDLERDFPCPVCRKS,4.03
13,CKACITRWWEDLERDFPCPVCRKD,4.83
14,CKACITRWWEDLERDFPCPVCRKL,3.78
15,CKACITRWWEDLERDFPCPVCRKR,3.67
16,CKACITRWWEDLERDFPCPVCRKA,4.07
17,CKACITRWWEDLERDFPCPVCRKF,3.03
18,CKACITRWWEDLERDFPCPVCRKV,3.57
19,CKACITRWWEDLERDFPCPVCRKQ,4.21
20,CKACITRWWEDLERDFPCPVCHKT,4.32
21,CKACITRWWEDLERDFPCPVCGKT,4.6
22,CKACITRWWEDLERDFPCPVCQKT,3.96
23,CKACITRWWEDLERDFPCPVCFKT,3.4
24,CKACITRWWEDLERDFPCPVCMKT,3.72
25,CKACITRWWEDLERDFPCPVCYKT,3.58
26,CKACITRWWEDLERDFPCPVCWKT,2.53
27,CKACITRWWEDLERDFPCPVCIKT,3.62

row,Variant,protein stability index
1,CKACITRWWEDLERDFPCPVCTKT,3.72
2,CKACITRWWEDLERDFPCPVCNKT,4.22
3,CKACITRWWEDLERDFPCPVCPKT,3.15
4,CKACITRWWEDLERDFPCPVCSKT,3.56
5,CKACITRWWEDLERDFPCPVCVKT,3.04
6,CKACITRWWEDLERDFPCPVCLKT,3.81
7,CKACITRWWEDLERDFPCPVCKKT,3.47
8,CKACITRWWEDLERDFPCPVCRFT,2.57
9,CKACITRWWEDLERDFPCPVCRGT,3.38
10,CKACITRWWEDLERDFPCPVCRWT,2.95
11,CKACITRWWEDLERDFPCPVCRHT,3.27
12,CKACITRWWEDLERDFPCPVCRRT,3.25
13,CKACITRWWEDLERDFPCPVCRST,3.63
14,CKACITRWWEDLERDFPCPVCRQT,4.58
15,CKACITRWWEDLERDFPCPVCRDT,4.34
16,CKACITRWWEDLERDFPCPVCRTT,3.31
17,CKACITRWWEDLERDFPCPVCRMT,3.37
18,CKACITRWWEDLERDFPCPVCRNT,3.95
19,CKACITRWWEDLERDFPCPVCRET,4.33
20,CKACITRWWEDLERDFPCPVCRYT,2.29
21,CKACITRWWEDLERDFPCPVCRPT,3.41
22,CKACITRWWEDLERDFPCPVCRVT,3.42
23,CKACITRWWEDLERDFPCPVCRIT,3.23
24,CKACITRWWEDLERDFPCPVCRLT,2.96
25,CKACITRWWEDLERDFPCPVCRCT,3.13
26,CKACITRWWEDLERDFPCPVCRAT,3.9
